The target of this experiment is SARS-CoV-2 spike protein (full length) (SARS-CoV-2) (UniProt P0DTC2). As to the kind of experiment: ELISA, GRP78-HRP on plate-bound spike protein. In general terms: An ELISA detects its analyte on a solid surface through an enzyme-linked reagent.

The text below walks through data of patent US20260242447A1.

For orientation: Kd means the concentration at which binding is half-saturated. Low values mean tighter binding, high ones weaker binding.

Chain of GRP78 (soluble / recombinant protein), P11021 19-654 (other; other documents disagree on this pair) (P11021 19-654 limits assumed): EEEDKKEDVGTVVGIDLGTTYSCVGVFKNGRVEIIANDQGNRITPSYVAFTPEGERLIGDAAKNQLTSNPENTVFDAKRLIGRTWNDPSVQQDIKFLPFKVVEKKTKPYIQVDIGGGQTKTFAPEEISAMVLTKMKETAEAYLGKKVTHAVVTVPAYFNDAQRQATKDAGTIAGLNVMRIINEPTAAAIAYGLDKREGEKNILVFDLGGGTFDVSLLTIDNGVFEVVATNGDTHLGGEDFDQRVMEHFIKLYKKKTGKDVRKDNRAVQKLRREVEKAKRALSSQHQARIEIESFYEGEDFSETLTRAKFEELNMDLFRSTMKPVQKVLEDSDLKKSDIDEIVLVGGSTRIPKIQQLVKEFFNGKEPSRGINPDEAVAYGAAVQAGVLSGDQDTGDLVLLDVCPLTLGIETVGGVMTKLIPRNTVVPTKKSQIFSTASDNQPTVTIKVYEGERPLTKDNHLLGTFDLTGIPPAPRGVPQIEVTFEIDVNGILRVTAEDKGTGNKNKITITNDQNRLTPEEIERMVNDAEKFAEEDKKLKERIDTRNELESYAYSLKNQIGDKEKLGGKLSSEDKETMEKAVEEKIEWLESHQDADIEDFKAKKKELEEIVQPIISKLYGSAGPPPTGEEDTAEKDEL

For the substance “GRP78 (soluble / recombinant protein), P11021 19-654 (other; other documents disagree on this pair)”, the Kd is 293 nM.
